# Measurements taken from the DeepSol protein solubility set.
# Experiment: soluble on expression in E. coli; label from the status in PepcDB or PDB records
row,Sequence,soluble on expression in E. coli
1,GMHSNINTLIANHRAGHALDQAFYTDAEVFQTDLQEIFYKEWLFAIPACELDKPGSYVTHQVGNYNVIIVRGADNVIRAFHNACRHRGSVICKAKKGNNPKLVCPYHQWTYELDGRLLWARDMGPDFEPSRHGLKTVHCRELAGLIYICLADEAPDFERFAEVARPYLEVHDLSNAKVAHESSIVERGNWKLVWENNRECYHCGGNHPALCRTFPDDPSVTGIEGGETPSNLQAHFDRCEQAGMPSGFHLSGDGQFRVARMPLKEGAESYTMDGKTAVRRWLGRAAFADAGSLLKFHYPTTWNHFLSDHSIVFRVTPISPTETEVTTKWLVHKDAVEGVDYDLQRLTEVWIATNDEDREVVEFNQMGINSPAYEPGPYSPTQESGVLQFVEWYLSTLKRNSGPHAVAAE,soluble
2,GMKIDGETRSARKDREIIQAATAAFISKGYDGTSMEEIATKAGASKQTVYKHFTDKETLFGEVVLSTASQVNDIIESVTTLLSEAIFMEGGLQQLARRLIAVLMDEELLKLRRLIIANADRMPQLGRAWYEKGFERMLASTASCFQKLTNRGLIQTGDPYLAASHLFGMLLWIPMNEAMFTGSNRRSKAELERHADASVEAFLAVYGVQPK,soluble
3,GMKQPNYYQDVKQFHQTFHHPGADQPTAIPLDRGVKRATWTAEEAVVEFLHQSSQNETEFLAAIETFKAGLDQAVKKSLKETYPVTEVERLVGQGDALTDALYFIMGSFVEAGLEPGPLFEIVQQANMAKLGPDGQPIFRESDQKVMKPDGWLPPEPQLEAEVVRQMKEKA,soluble
4,GMLTGKHVVIIGGDARQLEIIRKLSTFDAKISLVGFDQLDDGFIGVTKMRIDEVDWNTVDAILLPISGTNEAGKVDTIFSNESIVLTEEMIEKTPNHCVVYSGISNTYLNQCMKKTNRTLVKLMERDDIAIYNSIPTAEGTIMMAIQHTDFTIHGANVAVLGLGRVGMSVARKFAALGAKVKVGARESDLLARIAEMGMEPFHISKAAQELRDVDVCINTIPALVVTANVLAEMPSHTFVIDLASKPGGTDFRYAEKRGIKALLVPGLPGIVAPKTAGRILADVLVKLLAEPS,soluble
5,GMQIESFKSLLPKYKCIFFDAFGVLKTYNGLLPGIENTFDYLKAQGQDYYIVTNDASRSPEQLADSYHKLGLFSITADKIISSGMITKEYIDLKVDGGIVAYLGTANSANYLVSDGIKMLPVSAIDDSNIGEVNALVLLDDEGFNWFHDLNKTVNLLRKRTIPAIVANTDNTYPLTKTDVAIAIGGVATMIESILGRRFIRFGKPDSQMFMFAYDMLRQKMEISKREILMVGDTLHTDILGGNKFGLDTALVLTGNTRIDDAETKIKSTGIVPTHICESAVIEL,soluble
6,GMQTINATEIRNNFSYYIDTVVRDKPIAVKRNRDVLLFFSEQIIKDLLQDLKIHAELSKEDGIIIGTIDGFDLVVSGESEQEVIQKLAEDLLEYAQDYMNDFKLFYNAPNRKTHYPYILKVLLSSNIDEVKGYIYAEMV,soluble
7,GMSAKDVFHQVVKIALEKDGWQITNDPLTISVGGVNLSIDLGAEKLIAAEREGEKIAVEVKSFLERSSAISEFHTALGQFINYRGALRRRQPERVLYLAVPLTTYKTFFQLDFPKEMIAENQVKMLIYDVEQEVIFQWIN,soluble
8,GMSDEQHDSVWPPPGLDFSKPTIARVYDALLGGKDNFEADRALADYACKHIPGLKESAIENRKVLVRGVRFLAGEAGISQFLDLGSGLPTVQNTHEVAQSVNPDARVVYVDIDPMVLTHGRALLAKDPNTAVFTADVRDPEYILNHPDVRRMIDFSRPAAIMLVGMLHYLSPDVVDRVVGAYRDALAPGSYLFMTSLVDTGLPAQQKLARITRENLGEGWARTPEEIERQFGDFELVEPGVVYTALWRPDEPVDPDNLSPGEQLGMAGIGRKKA,soluble
9,GMSSDVQKGDNLETPGARDLLLQTASNIMREGDVVDISLSELSLRSGLNSALVKYYFGNKAGLLKALLDRDMENIVKSVDALLAKDDMSPEAKLRRHISKCIDTYYDYPYLNRLLMRLVRDSDEAEAKRIADQYLLPLHRAYNRFIGEGVKAGVFRPINPQLFYFTVTGAADRFFSARLVLKHCFDQDTLTEQLRDSYREHTVDFIMAGILAH,soluble
10,GMSSNLHGIAIGIERSQDDFYLAFKAVGKLTHEDYEQMTPLLESALAGIKTPEIVALIDITELDGLSLHAAWDDLKLGLKHGKEFKRVAIIGQGELQEWATRVANWFTPGEFKFFEDKRDALDWLC,soluble
11,GMSVAAEVAQVAQSAIDDFNAAYGLCLDDDRLEQWPTLFVDDCLYQVIARENVDNGLPAAVMYCDSKGMLADRVVALRKANVFPEHFNRHLIGRAVITGVEGDQVSAEASYVVFQTRNDGETRIYNAGKYVDRFDLSGGTVRLKSRTCIYDTLRIATLLATPI,soluble
12,GMSVVDPSLIERIIRDDVRAMGAYHVPDSHGLVKLDAMENPYRLPPALRSELAARLGEVALNRYPVPSSEALRAKLKEVMQVPAGMEVLLGNGSDEIISMLALAAARPGAKVMAPVPGFVMYAMSAQFAGLEFVGVPLRADFTLDRGAMLAAMAEHQPAIVYLAYPNNPTGNLFDAADMEAIVRAAQGSVCRSLVVVDEAYQPFAQESWMSRLTDFGNLLVMRTVSKLGLAGIRLGYVAGDPQWLEQLDKVRPPYNVNVLTEATALFALEHVAVLDEQAAQLRAERSRVAEGMAAHGGVTVFPSAANFLLARVPDAAQTFDRLLARKVLIKNVSKMHPLLANCLRVTVSTPEENAQFLEAFAASLQD,soluble
13,GMSYQNANYSAFYVSEPFSESNLGANSTHDFVYYNMLRMWKGEDNSFPFNDAHDKTYNVRDGSDWEKTLKPRLHTRLDNSKNIILFLSSITANSRALREEMNYGIGTKGLPVIVIYPDYDKKSDIVDSNGNFKKQIKDLWDKLPAFRDNMSSVATLHIPCTKSVIISALNNEDFMVNTMADAEKYYYKP,soluble
14,GMTESDRDYIQSIERGFAVLLAFDAQRPNPTLAELATEAGLSRPAVRRILLTLQKLGYVAGSGGRWSLTPRVLSIGQHYSESHALIEAAMPRLLEVAEKTQESASLGVLDGADVVYAARVPVRRIMSINVSVGTRVPAYATSMGRALLAWAPADVVERVVAESTFQKLGPETIGTAAELERELAKVREQGFALTSEELEKGLISLAAPVHDAGGTVVGVVACSTSSARNTPAQFREQAVPCVLAAAAALSADMGFAG,soluble
15,GMTRQRIAIDMDEVLADTLGAVVKAVNERADLNIKMESLNGKKLKHMIPEHEGLVMDILKEPGFFRNLDVMPHAQEVVKQLNEHYDIYIATAAMDVPTSFHDKYEWLLEYFPFLDPQHFVFCGRKNIILADYLIDDNPKQLEIFEGKSIMFTASHNVYEHRFERVSGWRDVKNYFNSIEK,soluble
16,GMTSNGQQGKPNLPEKDNLPRELGTQRINSPIARMGMFGAKTTGDTSGYGRLRVYRHVPAAAQRPYSDPSDPRTAYFDEVADALERSLKEIGTPYDTAISRVVVDRGEITFHVQREHLLDVATRLRDDPALRFELCLGVTGVHYPEDEGNELHAVYALRSITHNYEIRLEVSCPDSDPHIPSIVSVYPTNDWHEREAWDFFGIIFDGHPALTR,soluble
17,GMTTSEHIAALTALVETYVMAMTRGDRPALERIFFGKASEVGHYEGELLWNSRDAFIAMCEDAADAETDPFWAISSVSVQGDIAMLHVENDWAGMRFDDFLTVLLHEGSWRIVSKVYRIR,soluble
18,GMWSYDKITDYLMNNLGEKRYKHSLGVMDTAVRLAGIYNEDTEKARIAGLVHDCAKKLPGEKIIEICTNEGYELGDEDIRNSYLLHGLAGRILAKKVIGIDDEDVLNAIEFHTTGRPNMSLLEKIIYIADYIEPGREFKGVDELRKAADEDLNKALLMSFDNTIKFVIDKGGFLHHNTIEARNYLISRKG,soluble
19,GNLSFLATSDGASLAYRLDGAAEKPLLALSNSIGTTLHMWDAQLPALTRHFRVLRYDARGHGASSVPPGPYTLARLGEDVLELLDALEVRRAHFLGLSLGGIVGQWLALHAPQRIERLVLANTSAWLGPAAQWDERIAAVLQAEDMSETAAGFLGNWFPPALLERAEPVVERFRAMLMATNRHGLAGSFAAVRDTDLRAQLARIERPTLVIAGAYDTVTAASHGELIAASIAGARLVTLPAVHLSNVEFPQAFEGAVLSFLGA,not soluble
20,GPGSGPVFVQEPSHVMFPLDSEEKKVKLSCEVKGNPKPHIRWKLNGTDVDIGMDFRYSVVDGSLLINNPNKTQDAGTYQCIATNSFGTIVSREAKLQFAYLENFKTRTRSTVSVRRGQGMVLLCGPPPHSGELSYAWIFNEYPSYQDNRRFVSQETGNLYIAKVEKSDVGNYTCVVTNTVTNHKVLGPPTPLILRNDGVMGEYEPKIEVQFPETVPAEKGTTVKLECFALGNPVPTILWRRADGKPIARKARRHKSNGILEIPNFQQEDAGSYECVAENSRGKNVAKGQLTFYAQPNWVQIINDIHVAMEESVFWECKANGRPKPTYRWLKNGDPLLTRDRIQIEQGTLNITIVNLSDAGMYQCVAENKHGVIFSSAELSVIAE,soluble
21,GPGSMAVQPGKVLAEQFSRQGIQYEESTDVLWCSLCTKADSLEIISRATVEDVLEHCRLRQHLLLMEKETVKEHYCPVEINGRSFLLDHNCVYPSTMFGKGRMLLDDTLGCVMTEDVCGGVKLLPRHKYTVVEIVIPPAGTPIPKDPSYYVERPVRSRKCHEKFDSWIQVHNSSVEGESALMKRRRIAFSQLNM,not soluble
22,GPGSMDFVPTVAVIRANPVEGVRYAYTSTVSDNRYDSFVEDAVMQYSGNVNEADGSDRASPRFSGRSVVNLQRAILQCGDIRVSDKQDAEPVGVWRCLAGAILAACCFLRSYSTCPSESFDECGAEVCDAFVPAGVAMIIFSGVCDTRPLSFSEECPFSAAVTAATRLRTAVHVFGPAVVSSALGLRLQALANTTGGIWAPQFALSHVGYLMELAVRRNGQREMDSATNSRRQRELLVERYVVPPACLPQDPAQTGVASGENVSYLAWLCSACLATLVRHPHEEVGAIRMCPYCAASK,not soluble
23,GPGSMGTMKDKNKCTFRYFEVLPIDHEPEYQNGYVCDICFMEYSEGPFFHCSKSGKDVCLRCGGKMGLTPFTALVSKVMRPTVYWSESESSRAIALCYQIHRDILGCHFIDGANLLISTRDDLPSYFIDSNSCIEKSIVLSRSDIERRFPWAGEVAEVMGVNAVSFHETSACNDQSRLCFLSSFRVEGAFIEFRFSDGFCELVHCENGTIVAIRDSAVLSCFLMGLPVRWGRSLPKAASSVLEWYLKGGQR,not soluble
24,GPGSMHEDGQFLRAFLLRVLANDMQRMLATNTCATYFRNIPLEPEYDASGNRTNTPENVVMEKRLRVMDDISKLLRTYVERAEYAANKSKDINRRIYFTAEQIETGDYGALIGPRGLVHQQLEKETNCHIVLVGRGITNPLKDTNPNAASMALEDPHVRITATTEEDLQTAAERIEWILSDEPEAVEFRENNRRRMAQVDGRYDPRTWMTAAEKRKKAAAEKAAAAGGAAAGEDETKAEKGRKREREEAPVEEEDTELNEFLEDL,soluble
25,GPGSMINWCEGCSNRNNNTQPELVLGNETFVTHGVAAPDKGSKYPLGGPFRLRESRTGNYITDKELFQDHWTLLYFGFSKCAEVCPSTLRFITDVMKACDEKLAGDKNLSTEAARLQAVFLSVDSRRDTPEVLEGFVSKYDPRVRGLTGTSKEIEQAARAWRVYYSSIDETDEEKSAREAKGVPMVGADDDTYQLDHSSAIYLVGVDGKLKDFFFKEMGVADAVGRLEVHLQDVYGFKDTRG,not soluble
26,GPGSMIRTTAAAARLPQSTQGWVPLMRRALEFPIDSVTFPSHFYLHTVTNGTASTVGFSPQKEPVGLTALRQCAVLVLLSPAATGNGFQDMCITLTKRTATMGSHKSEMSFPGGHVDDDETLRNAAQRETLEEVGLPPSEYEIIGSLTPITTNALSARVTPFVAVATSPAQPYRASPVEVDSIHYLHMSMLLLSASTGHARVIKYRSFTSDRPCFFPCFFASPAQTVVSSAVCRSPKATGVADDCGFDPMLPEDF,not soluble
